What was measured:
HLA-A*32:01 = experiment: IEDB peptide-MHC binding, purified MHC/competitive/radioactivity; filed as Kd, often an IC50 or EC50 that approximates it; ≥ and ≤ were set here for values at or beyond the usual limits of such assays
HLA-A*31:01 = experiment: IEDB peptide-MHC binding, purified MHC/direct/fluorescence; filed as Kd, often an IC50 or EC50 that approximates it; ≥ and ≤ were set here for values at or beyond the usual limits of such assays
HLA-A*68:01 = experiment: IEDB peptide-MHC binding, purified MHC/competitive/radioactivity; filed as Kd, often an IC50 or EC50 that approximates it; ≥ and ≤ were set here for values at or beyond the usual limits of such assays; settings: source organism: SARS coronavirus Tor2
HLA-A*33:01 = experiment: as above; settings: source organism: SARS coronavirus Tor2
HLA-A*02:01 [1] = experiment: IEDB peptide-MHC binding, purified MHC/competitive/fluorescence; filed as Kd, often an IC50 or EC50 that approximates it; ≥ and ≤ were set here for values at or beyond the usual limits of such assays; settings: source organism: Vaccinia virus WR
HLA-A*11:01 = experiment: IEDB peptide-MHC binding, purified MHC/direct/fluorescence; filed as Kd, often an IC50 or EC50 that approximates it; ≥ and ≤ were set here for values at or beyond the usual limits of such assays; settings: source organism: Bacillus licheniformis
HLA-A*01:01 [2] = experiment: as above; settings: source organism: Bacillus licheniformis
HLA-B*15:01 = experiment: as above; settings: source organism: Bacillus licheniformis
HLA-A*03:01 = experiment: as above
HLA-A*69:01 = experiment: as above; settings: source organism: Bacillus licheniformis
HLA-A*02:01 [3] = experiment: as above; settings: source organism: Bacillus licheniformis
HLA-A*01:01 [4] = experiment: IEDB peptide-MHC binding, purified MHC/competitive/radioactivity; filed as Kd, often an IC50 or EC50 that approximates it; ≥ and ≤ were set here for values at or beyond the usual limits of such assays
HLA-A*29:02 = experiment: as above
HLA-A*24:02 = experiment: as above
HLA-A*23:01 = experiment: as above
HLA-A*30:02 = experiment: as above
HLA-A*26:01 = experiment: as above
[5] = source organism: Vaccinia virus WR
[6] = source organism: Bacillus licheniformis
[7] = source organism: Xanthobacter autotrophicus
[8] = source organism: SARS coronavirus Tor2
[9] = source organism: Mammarenavirus machupoense
[10] = source organism: Triticum aestivum

**Q.** How did the Kd (HLA-A*32:01; [5]) turn out when IILVIIVVI was run?
**A.** 415 nM

**Q.** KTPVESWEEI was tested. Which Kd (HLA-A*32:01; source organism: Dengue virus 2 Peru/IQT2913/1996) did it give?
**A.** 1610 nM

**Q.** How did the Kd (HLA-A*32:01; [5]) turn out when MTMKMMVHI was run?
**A.** 4.75 nM

**Q.** Which Kd (HLA-A*31:01; source organism: SARS-CoV1) does the source give for QLFKPLTKK here?
**A.** 980 nM

**Q.** And the Kd (HLA-A*68:01)?
**A.** 16800 nM

**Q.** And the Kd (HLA-A*33:01)?
**A.** ≥ 77700 nM

**Q.** TLFPGDDDL was tested. Which Kd (HLA-A*02:01 [1]) did it give?
**A.** 394 nM

**Q.** With TVIFQTVVI as the sequence, how does the Kd (HLA-A*32:01; [5]) read?
**A.** 569 nM

**Q.** For ALMEITSRY, which Kd (HLA-A*11:01) is on record?
**A.** 605 nM

**Q.** What about the Kd (HLA-A*01:01 [2]) of the same sequence?
**A.** 1040 nM

**Q.** And the Kd (HLA-A*31:01; [6])?
**A.** 5280 nM

**Q.** And the Kd (HLA-B*15:01)?
**A.** 90.5 nM

**Q.** What about the Kd (HLA-A*03:01; [6]) of the same sequence?
**A.** 259 nM

**Q.** And the Kd (HLA-A*69:01)?
**A.** 11700 nM

**Q.** What about the Kd (HLA-A*02:01 [3]) of the same sequence?
**A.** 4810 nM

**Q.** With KINEVVEIF as the sequence, how does the Kd (HLA-A*32:01; [5]) read?
**A.** 19.3 nM

**Q.** For SIYGFGVTF, which Kd (HLA-A*32:01; [5]) is on record?
**A.** 0.113 nM

**Q.** Which results are given for GVWTRDGNR?
**A.** Kd (HLA-A*31:01; [7]): 59 nM; Kd (HLA-A*03:01; [7]): ≥ 20000 nM

**Q.** With RMYIFFASF as the sequence, how does the Kd (HLA-A*01:01 [4]; [8]) read?
**A.** ≥ 20900 nM

**Q.** And the Kd (HLA-A*29:02; [8])?
**A.** 2100 nM

**Q.** And the Kd (HLA-A*24:02; [8])?
**A.** 106 nM

**Q.** What about the Kd (HLA-A*23:01; [8]) of the same sequence?
**A.** 75.3 nM

**Q.** And the Kd (HLA-A*30:02; [8])?
**A.** 1240 nM

**Q.** And the Kd (HLA-A*26:01; [8])?
**A.** 7040 nM

**Q.** For HIIIVALTI, which Kd (HLA-A*32:01; [5]) is on record?
**A.** 78.8 nM

**Q.** Which results are given for FIAQSKGLY?
**A.** Kd (HLA-A*01:01 [4]; [8]): 465 nM; Kd (HLA-A*29:02; [8]): 4.94 nM; Kd (HLA-A*24:02; [8]): ≥ 77600 nM; Kd (HLA-A*23:01; [8]): ≥ 77800 nM; Kd (HLA-A*30:02; [8]): 24.5 nM; Kd (HLA-A*26:01; [8]): 88.4 nM

**Q.** LCMLNNSFYY was tested. Which Kd (HLA-A*01:01 [4]; [9]) did it give?
**A.** 612 nM

**Q.** And the Kd (HLA-A*29:02; [9])?
**A.** 5.43 nM

**Q.** And the Kd (HLA-A*24:02; [9])?
**A.** ≥ 47800 nM

**Q.** What about the Kd (HLA-A*23:01; [9]) of the same sequence?
**A.** ≥ 29300 nM

**Q.** And the Kd (HLA-A*30:02; [9])?
**A.** 11.7 nM

**Q.** And the Kd (HLA-A*26:01; [9])?
**A.** ≥ 69700 nM

**Q.** How did the Kd (HLA-A*01:01 [4]; [8]) turn out when VYHITVSQI was run?
**A.** ≥ 31300 nM

**Q.** And the Kd (HLA-A*29:02; [8])?
**A.** ≥ 28900 nM

**Q.** And the Kd (HLA-A*24:02; [8])?
**A.** 26.6 nM

**Q.** And the Kd (HLA-A*23:01; [8])?
**A.** 98 nM

**Q.** And the Kd (HLA-A*30:02; [8])?
**A.** ≥ 81100 nM

**Q.** And the Kd (HLA-A*26:01; [8])?
**A.** ≥ 77900 nM

**Q.** With QYPSGQGSF as the sequence, how does the Kd (HLA-A*01:01 [4]; [10]) read?
**A.** ≥ 61500 nM

**Q.** What about the Kd (HLA-A*29:02; [10]) of the same sequence?
**A.** 175 nM

**Q.** And the Kd (HLA-A*24:02; [10])?
**A.** 3390 nM

**Q.** And the Kd (HLA-A*23:01; [10])?
**A.** ≥ 35700 nM

**Q.** And the Kd (HLA-A*30:02; [10])?
**A.** 1.17 nM

**Q.** What about the Kd (HLA-A*26:01; [10]) of the same sequence?
**A.** ≥ 49300 nM

**Q.** What does the source list for TTTGIGYQPY?
**A.** Kd (HLA-A*01:01 [4]; [8]): 126 nM; Kd (HLA-A*29:02; [8]): 8.8 nM; Kd (HLA-A*24:02; [8]): ≥ 70300 nM; Kd (HLA-A*23:01; [8]): ≥ 70000 nM; Kd (HLA-A*30:02; [8]): 204 nM; Kd (HLA-A*26:01; [8]): 56.8 nM

**Q.** Which Kd (HLA-A*01:01 [4]; [8]) does the source give for ISAGFSLWIY here?
**A.** 52.3 nM

**Q.** And the Kd (HLA-A*29:02; [8])?
**A.** 2.3 nM

**Q.** And the Kd (HLA-A*24:02; [8])?
**A.** ≥ 70300 nM

**Q.** What about the Kd (HLA-A*23:01; [8]) of the same sequence?
**A.** ≥ 28800 nM

**Q.** What about the Kd (HLA-A*30:02; [8]) of the same sequence?
**A.** 9.64 nM

**Q.** What about the Kd (HLA-A*26:01; [8]) of the same sequence?
**A.** 1090 nM

**Q.** How did the Kd (HLA-A*01:01 [4]; [8]) turn out when TYTEIEPKL was run?
**A.** ≥ 78100 nM

**Q.** What about the Kd (HLA-A*29:02; [8]) of the same sequence?
**A.** 12200 nM

**Q.** And the Kd (HLA-A*24:02; [8])?
**A.** ≥ 29500 nM

**Q.** What about the Kd (HLA-A*23:01; [8]) of the same sequence?
**A.** ≥ 21500 nM

**Q.** What about the Kd (HLA-A*30:02; [8]) of the same sequence?
**A.** ≥ 78900 nM

**Q.** What about the Kd (HLA-A*26:01; [8]) of the same sequence?
**A.** ≥ 77900 nM

Reference: the Immune Epitope Database (IEDB)
